From patent US20120135923A1 (IPSEN PHARMA S A S, published 2012)
Bridge positions count the residues as written; N and C are the ends. Square brackets hold non-standard residues; d marks the D form. 1Nal = N[C@@H](Cc1cccc2ccccc12)C(=O)O; 2Nal = N[C@@H](Cc1ccc2ccccc2c1)C(=O)O; d2Nal = N[C@H](Cc1ccc2ccccc2c1)C(=O)O; Bta = N[C@@H](Cc1csc2ccccc12)C(=O)O; βAla = NCCC(=O)O

B1: Ac-c(Cys-Glu-His-D-2-Nal-Arg-Bal-Ala-Cys)-Pro-Pro-Lys-Asp-β-[…]NH2 (peptide)
peptide: Ac-CEH[d2Nal]R[Bta]ACPPKD[βAla]GRRRRRQRRR-NH2
modifications: disulfide 1-8
B2: Ac-c(Cys-Glu-His-D-2-Nal-Arg-1-Nal-Ala-Cys)-Pro-Pro-Lys-Asp-β-[…]NH2 (peptide)
peptide: Ac-CEH[d2Nal]R[1Nal]ACPPKD[βAla]RRRRRRQRRR-NH2
modifications: disulfide 1-8
B3: Ac-c(Cys-Glu-His-D-2-Nal-Arg-Bal-Ala-Cys)-Pro-Pro-Lys-Asp-β-[…]NH2 (peptide)
peptide: Ac-CEH[d2Nal]R[Bta]ACPPKD[βAla]RRRRRQRRR-NH2
modifications: disulfide 1-8
B4: Ac-c(Cys-Glu-His-D-2-Nal-Arg-Bal-Ala-Cys)-Pro-Pro-Lys-Asp-β-[…]NH2 (peptide)
peptide: Ac-CEH[d2Nal]R[Bta]ACPPKD[βAla]RKRRRQRRR-NH2
modifications: disulfide 1-8
SMILES: CC(=O)N[C@H]1CSSC[C@@H](C(=O)N2CCC[C@H]2C(=O)N2CCC[C@H]2C(=O)N[C@@H](CCCCN)C(=O)N[C@@H](CC(=O)O)C(=O)NCCC(=O)N[C@@H](CCCNC(=N)N)C(=O)N[C@@H](CCCCN)C(=O)N[C@@H](CCCNC(=N)N)C(=O)N[C@@H](CCCNC(=N)N)C(=O)N[C@@H](CCCNC(=N)N)C(=O)N[C@@H](CCC(N)=O)C(=O)N[C@@H](CCCNC(=N)N)C(=O)N[C@@H](CCCNC(=N)N)C(=O)N[C@@H](CCCNC(=N)N)C(N)=O)NC(=O)[C@H](C)NC(=O)[C@H](Cc2csc3ccccc23)NC(=O)[C@H](CCCNC(=N)N)NC(=O)[C@@H](Cc2ccc3ccccc3c2)NC(=O)[C@H](Cc2c[nH]cn2)NC(=O)[C@H](CCC(=O)O)NC1=O
B5: Ac-c(Cys-Glu-His-D-2-Nal-Arg-1-Nal-Ala-Cys)-Pro-Pro-Lys-Asp-β-[…]NH2 (peptide)
peptide: Ac-CEH[d2Nal]R[1Nal]ACPPKD[βAla]RRKRRQRRR-NH2
modifications: disulfide 1-8
SMILES: CC(=O)N[C@H]1CSSC[C@@H](C(=O)N2CCC[C@H]2C(=O)N2CCC[C@H]2C(=O)N[C@@H](CCCCN)C(=O)N[C@@H](CC(=O)O)C(=O)NCCC(=O)N[C@@H](CCCNC(=N)N)C(=O)N[C@@H](CCCNC(=N)N)C(=O)N[C@@H](CCCCN)C(=O)N[C@@H](CCCNC(=N)N)C(=O)N[C@@H](CCCNC(=N)N)C(=O)N[C@@H](CCC(N)=O)C(=O)N[C@@H](CCCNC(=N)N)C(=O)N[C@@H](CCCNC(=N)N)C(=O)N[C@@H](CCCNC(=N)N)C(N)=O)NC(=O)[C@H](C)NC(=O)[C@H](Cc2cccc3ccccc23)NC(=O)[C@H](CCCNC(=N)N)NC(=O)[C@@H](Cc2ccc3ccccc3c2)NC(=O)[C@H](Cc2c[nH]cn2)NC(=O)[C@H](CCC(=O)O)NC1=O
B6: Ac-c(Cys-Glu-His-D-2-Nal-Arg-1-Nal-Ala-Cys)-Pro-Pro-Arg-Asp-β-[…]NH2 (peptide)
peptide: Ac-CEH[d2Nal]R[1Nal]ACPPRD[βAla]RRRRRQRRR-NH2
modifications: disulfide 1-8
SMILES: CC(=O)N[C@H]1CSSC[C@@H](C(=O)N2CCC[C@H]2C(=O)N2CCC[C@H]2C(=O)N[C@@H](CCCNC(=N)N)C(=O)N[C@@H](CC(=O)O)C(=O)NCCC(=O)N[C@@H](CCCNC(=N)N)C(=O)N[C@@H](CCCNC(=N)N)C(=O)N[C@@H](CCCNC(=N)N)C(=O)N[C@@H](CCCNC(=N)N)C(=O)N[C@@H](CCCNC(=N)N)C(=O)N[C@@H](CCC(N)=O)C(=O)N[C@@H](CCCNC(=N)N)C(=O)N[C@@H](CCCNC(=N)N)C(=O)N[C@@H](CCCNC(=N)N)C(N)=O)NC(=O)[C@H](C)NC(=O)[C@H](Cc2cccc3ccccc23)NC(=O)[C@H](CCCNC(=N)N)NC(=O)[C@@H](Cc2ccc3ccccc3c2)NC(=O)[C@H](Cc2c[nH]cn2)NC(=O)[C@H](CCC(=O)O)NC1=O
B7: Ac-c(Cys-Glu-His-D-2-Nal-Arg-Bal-Ala-Cys)-Pro-Pro-Arg-Asp-β-[…]NH2 (peptide)
peptide: Ac-CEH[d2Nal]R[Bta]ACPPRD[βAla]RRRRRQRRR-NH2
modifications: disulfide 1-8
SMILES: CC(=O)N[C@H]1CSSC[C@@H](C(=O)N2CCC[C@H]2C(=O)N2CCC[C@H]2C(=O)N[C@@H](CCCNC(=N)N)C(=O)N[C@@H](CC(=O)O)C(=O)NCCC(=O)N[C@@H](CCCNC(=N)N)C(=O)N[C@@H](CCCNC(=N)N)C(=O)N[C@@H](CCCNC(=N)N)C(=O)N[C@@H](CCCNC(=N)N)C(=O)N[C@@H](CCCNC(=N)N)C(=O)N[C@@H](CCC(N)=O)C(=O)N[C@@H](CCCNC(=N)N)C(=O)N[C@@H](CCCNC(=N)N)C(=O)N[C@@H](CCCNC(=N)N)C(N)=O)NC(=O)[C@H](C)NC(=O)[C@H](Cc2csc3ccccc23)NC(=O)[C@H](CCCNC(=N)N)NC(=O)[C@@H](Cc2ccc3ccccc3c2)NC(=O)[C@H](Cc2c[nH]cn2)NC(=O)[C@H](CCC(=O)O)NC1=O
B8: Ac-c(Cys-Glu-His-D-2-Nal-Arg-2-Nal-Ala-Cys)-Pro-Pro-Lys-Asp-β-[…]NH2 (peptide)
peptide: Ac-CEH[d2Nal]R[2Nal]ACPPKD[βAla]RKRRRQRRR-NH2
modifications: disulfide 1-8
SMILES: CC(=O)N[C@H]1CSSC[C@@H](C(=O)N2CCC[C@H]2C(=O)N2CCC[C@H]2C(=O)N[C@@H](CCCCN)C(=O)N[C@@H](CC(=O)O)C(=O)NCCC(=O)N[C@@H](CCCNC(=N)N)C(=O)N[C@@H](CCCCN)C(=O)N[C@@H](CCCNC(=N)N)C(=O)N[C@@H](CCCNC(=N)N)C(=O)N[C@@H](CCCNC(=N)N)C(=O)N[C@@H](CCC(N)=O)C(=O)N[C@@H](CCCNC(=N)N)C(=O)N[C@@H](CCCNC(=N)N)C(=O)N[C@@H](CCCNC(=N)N)C(N)=O)NC(=O)[C@H](C)NC(=O)[C@H](Cc2ccc3ccccc3c2)NC(=O)[C@H](CCCNC(=N)N)NC(=O)[C@@H](Cc2ccc3ccccc3c2)NC(=O)[C@H](Cc2c[nH]cn2)NC(=O)[C@H](CCC(=O)O)NC1=O
B9: Ac-c(Cys-Glu-His-D-2-Nal-Arg-2-Nal-Ala-Cys)-Pro-Pro-Lys-Asp-β-[…]NH2 (peptide)
peptide: Ac-CEH[d2Nal]R[2Nal]ACPPKD[βAla]RRKRRQRRR-NH2
modifications: disulfide 1-8
SMILES: CC(=O)N[C@H]1CSSC[C@@H](C(=O)N2CCC[C@H]2C(=O)N2CCC[C@H]2C(=O)N[C@@H](CCCCN)C(=O)N[C@@H](CC(=O)O)C(=O)NCCC(=O)N[C@@H](CCCNC(=N)N)C(=O)N[C@@H](CCCNC(=N)N)C(=O)N[C@@H](CCCCN)C(=O)N[C@@H](CCCNC(=N)N)C(=O)N[C@@H](CCCNC(=N)N)C(=O)N[C@@H](CCC(N)=O)C(=O)N[C@@H](CCCNC(=N)N)C(=O)N[C@@H](CCCNC(=N)N)C(=O)N[C@@H](CCCNC(=N)N)C(N)=O)NC(=O)[C@H](C)NC(=O)[C@H](Cc2ccc3ccccc3c2)NC(=O)[C@H](CCCNC(=N)N)NC(=O)[C@@H](Cc2ccc3ccccc3c2)NC(=O)[C@H](Cc2c[nH]cn2)NC(=O)[C@H](CCC(=O)O)NC1=O
B10: Ac-c(Cys-Glu-His-D-2-Nal-Arg-2-Nal-Ala-Cys)-Pro-Pro-Lys-Asp-β-[…]NH2 (peptide)
peptide: Ac-CEH[d2Nal]R[2Nal]ACPPKD[βAla]YGRKRRRQRRR-NH2
modifications: disulfide 1-8
SMILES: CC(=O)N[C@H]1CSSC[C@@H](C(=O)N2CCC[C@H]2C(=O)N2CCC[C@H]2C(=O)N[C@@H](CCCCN)C(=O)N[C@@H](CC(=O)O)C(=O)NCCC(=O)N[C@@H](Cc2ccc(O)cc2)C(=O)NCC(=O)N[C@@H](CCCNC(=N)N)C(=O)N[C@@H](CCCCN)C(=O)N[C@@H](CCCNC(=N)N)C(=O)N[C@@H](CCCNC(=N)N)C(=O)N[C@@H](CCCNC(=N)N)C(=O)N[C@@H](CCC(N)=O)C(=O)N[C@@H](CCCNC(=N)N)C(=O)N[C@@H](CCCNC(=N)N)C(=O)N[C@@H](CCCNC(=N)N)C(N)=O)NC(=O)[C@H](C)NC(=O)[C@H](Cc2ccc3ccccc3c2)NC(=O)[C@H](CCCNC(=N)N)NC(=O)[C@@H](Cc2ccc3ccccc3c2)NC(=O)[C@H](Cc2c[nH]cn2)NC(=O)[C@H](CCC(=O)O)NC1=O
B11: Ac-c(Cys-Glu-His-D-2-Nal-Arg-Bal-Ala-Cys)-Pro-Pro-Lys-Asp-β-[…]NH2 (peptide)
peptide: Ac-CEH[d2Nal]R[Bta]ACPPKD[βAla]YGRRRRRQRRR-NH2
modifications: disulfide 1-8
SMILES: CC(=O)N[C@H]1CSSC[C@@H](C(=O)N2CCC[C@H]2C(=O)N2CCC[C@H]2C(=O)N[C@@H](CCCCN)C(=O)N[C@@H](CC(=O)O)C(=O)NCCC(=O)N[C@@H](Cc2ccc(O)cc2)C(=O)NCC(=O)N[C@@H](CCCNC(=N)N)C(=O)N[C@@H](CCCNC(=N)N)C(=O)N[C@@H](CCCNC(=N)N)C(=O)N[C@@H](CCCNC(=N)N)C(=O)N[C@@H](CCCNC(=N)N)C(=O)N[C@@H](CCC(N)=O)C(=O)N[C@@H](CCCNC(=N)N)C(=O)N[C@@H](CCCNC(=N)N)C(=O)N[C@@H](CCCNC(=N)N)C(N)=O)NC(=O)[C@H](C)NC(=O)[C@H](Cc2csc3ccccc23)NC(=O)[C@H](CCCNC(=N)N)NC(=O)[C@@H](Cc2ccc3ccccc3c2)NC(=O)[C@H](Cc2c[nH]cn2)NC(=O)[C@H](CCC(=O)O)NC1=O
B12: Ac-c(Cys-Glu-His-D-2-Nal-Arg-Bal-Ala-Cys)-Pro-Pro-Lys-Asp-β-[…]NH2 (peptide)
peptide: Ac-CEH[d2Nal]R[Bta]ACPPKD[βAla]YGRRKRRQRRR-NH2
modifications: disulfide 1-8
SMILES: CC(=O)N[C@H]1CSSC[C@@H](C(=O)N2CCC[C@H]2C(=O)N2CCC[C@H]2C(=O)N[C@@H](CCCCN)C(=O)N[C@@H](CC(=O)O)C(=O)NCCC(=O)N[C@@H](Cc2ccc(O)cc2)C(=O)NCC(=O)N[C@@H](CCCNC(=N)N)C(=O)N[C@@H](CCCNC(=N)N)C(=O)N[C@@H](CCCCN)C(=O)N[C@@H](CCCNC(=N)N)C(=O)N[C@@H](CCCNC(=N)N)C(=O)N[C@@H](CCC(N)=O)C(=O)N[C@@H](CCCNC(=N)N)C(=O)N[C@@H](CCCNC(=N)N)C(=O)N[C@@H](CCCNC(=N)N)C(N)=O)NC(=O)[C@H](C)NC(=O)[C@H](Cc2csc3ccccc23)NC(=O)[C@H](CCCNC(=N)N)NC(=O)[C@@H](Cc2ccc3ccccc3c2)NC(=O)[C@H](Cc2c[nH]cn2)NC(=O)[C@H](CCC(=O)O)NC1=O

biological target: T1, human melanocortin receptor subtype 1 (hMC1-R) (human, UniProt Q01726 1-317); assay: [125I]-NDP-α-MSH competition, membranes
T1 construct: whole, on cells; membranes of CHO-K1 cells
T1 sequence (Q01726 whole entry): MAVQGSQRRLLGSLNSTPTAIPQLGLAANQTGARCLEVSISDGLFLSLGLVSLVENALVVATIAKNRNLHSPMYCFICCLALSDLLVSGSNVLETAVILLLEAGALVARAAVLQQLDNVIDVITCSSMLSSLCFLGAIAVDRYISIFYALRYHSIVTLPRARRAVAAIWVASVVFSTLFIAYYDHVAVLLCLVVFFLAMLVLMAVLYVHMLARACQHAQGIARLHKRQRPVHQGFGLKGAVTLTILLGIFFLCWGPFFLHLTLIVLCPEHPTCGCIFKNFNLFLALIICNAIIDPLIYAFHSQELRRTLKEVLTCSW

Binder	Ki [nM]
B1	12.8
B2	6.66
B3	3.86
B4	3.28
B5	4.62
B6	2.93
B7	4.11
B8	2.25
B9	3.41
B10	1.49
B11	3.07
B12	2.24

biological target: T2, human melanocortin receptor subtype 3 (hMC3-R) (human, UniProt P41968 1-323); assay: [125I]-NDP-α-MSH competition, membranes
T2 construct: whole, on cells; membranes of CHO-K1 cells
T2 sequence (P41968 whole entry): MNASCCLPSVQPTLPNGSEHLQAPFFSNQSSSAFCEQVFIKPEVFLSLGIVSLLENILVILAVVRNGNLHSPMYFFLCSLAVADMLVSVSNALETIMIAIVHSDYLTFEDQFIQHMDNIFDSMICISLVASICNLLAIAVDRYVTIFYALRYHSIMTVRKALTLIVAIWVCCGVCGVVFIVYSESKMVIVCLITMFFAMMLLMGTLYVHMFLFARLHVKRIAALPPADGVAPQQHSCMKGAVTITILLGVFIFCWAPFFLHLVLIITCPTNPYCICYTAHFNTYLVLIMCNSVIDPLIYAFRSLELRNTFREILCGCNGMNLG

Binder	Ki [nM]
B1	15.9
B2	19.3
B3	4.97
B4	1.95
B5	5.68
B6	9.07
B7	7.26
B8	0.62
B9	0.975
B10	0.604
B11	4.05
B12	1.57

biological target: T3, human melanocortin receptor subtype 4 (hMC4-R) (human, UniProt P32245 1-332); assay: [125I]-NDP-α-MSH competition, membranes
T3 construct: whole, on cells; membranes of CHO-K1 cells
T3 sequence (P32245 whole entry): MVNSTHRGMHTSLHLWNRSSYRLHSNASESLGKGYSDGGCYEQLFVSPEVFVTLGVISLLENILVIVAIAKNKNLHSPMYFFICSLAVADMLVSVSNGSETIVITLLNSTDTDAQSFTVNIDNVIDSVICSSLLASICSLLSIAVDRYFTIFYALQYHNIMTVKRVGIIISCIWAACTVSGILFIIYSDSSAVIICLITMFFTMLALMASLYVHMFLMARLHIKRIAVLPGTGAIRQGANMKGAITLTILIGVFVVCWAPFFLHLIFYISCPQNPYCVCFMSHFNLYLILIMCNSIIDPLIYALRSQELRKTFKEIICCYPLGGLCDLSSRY

Binder	Ki [nM]
B1	0.95
B2	0.819
B3	0.192
B4	0.575
B5	0.505
B6	0.293
B7	0.302
B8	0.303
B9	0.549
B10	0.865
B11	0.498
B12	0.437

biological target: T4, human melanocortin receptor subtype 5 (hMC5-R) (human, UniProt P33032 1-325); assay: [125I]-NDP-α-MSH competition, membranes
T4 construct: whole, on cells; membranes of CHO-K1 cells
T4 sequence (P33032 whole entry): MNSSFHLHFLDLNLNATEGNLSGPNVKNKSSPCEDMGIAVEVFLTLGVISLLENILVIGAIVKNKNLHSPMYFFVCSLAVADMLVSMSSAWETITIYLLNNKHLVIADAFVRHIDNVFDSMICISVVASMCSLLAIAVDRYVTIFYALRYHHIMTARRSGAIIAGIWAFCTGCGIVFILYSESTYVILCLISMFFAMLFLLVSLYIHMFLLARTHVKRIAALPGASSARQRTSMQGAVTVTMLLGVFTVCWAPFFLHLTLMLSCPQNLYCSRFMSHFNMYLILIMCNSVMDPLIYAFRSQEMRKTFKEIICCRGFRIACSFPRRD

Binder	Ki [nM]
B1	165
B2	88.8
B3	38.3
B4	15.5
B5	45.3
B6	59
B7	48.3
B8	2.77
B9	11.3
B10	3.13
B11	31.1
B12	16.4
